US9766240B2, “Method of identifying a compound for treating a hypoxic or ischemic related disorder” (Dana Farber Cancer Institute, Inc., priority 2001, dated 2017)
Square brackets hold non-standard residues; d marks the D form. Ends that are not written are not given here. Hyp = O=C(O)[C@@H]1C[C@@H](O)CN1

Key:
[1] = biological target: T1, HIF bound to HA-pVHL (Homo sapiens, UniProt P40337); experiment: Peptide elution of HIF coimmunoprecipitated with HA-pVHL from ts20 cells; type: binding; settings: 7 μg of peptide in 65 μl PBS
T1 construct: expressed in transfected cells; host or cells: ts20 cells stably transfected with pIRES-HA-VHL
T1 sequence (P40337 whole entry): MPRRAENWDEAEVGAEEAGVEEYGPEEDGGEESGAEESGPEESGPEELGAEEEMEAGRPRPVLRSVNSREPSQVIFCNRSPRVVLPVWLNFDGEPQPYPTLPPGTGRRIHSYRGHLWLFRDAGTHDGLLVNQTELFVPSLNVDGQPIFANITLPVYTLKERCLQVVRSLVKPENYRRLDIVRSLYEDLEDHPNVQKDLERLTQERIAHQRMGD
T1 sequence (P62869 whole entry partner): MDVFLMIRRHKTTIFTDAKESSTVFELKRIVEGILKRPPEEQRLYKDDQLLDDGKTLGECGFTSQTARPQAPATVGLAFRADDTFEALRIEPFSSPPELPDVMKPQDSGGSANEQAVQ
T1 sequence (P83940 whole entry partner): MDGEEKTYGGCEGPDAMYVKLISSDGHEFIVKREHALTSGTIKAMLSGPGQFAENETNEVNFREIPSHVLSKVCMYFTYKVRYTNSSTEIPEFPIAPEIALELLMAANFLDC
Experimental: Individual G418-resistant colonies were isolated using cloning cylinders and expanded. Cells producing HA-VHL or HA-VHL (Y98H) were identified by anti-HA immunoblot analysis. […] For the tests shown in FIG. 7C, ts20 cells were grown at the restrictive or permissive temperature for 14 hour, methionine-starved for 90 min, and then grown in the methionine-free media supplemented with ^35S-met ([…]) for 90 min.

[2] = biological target: T2, pVHL (Homo sapiens, UniProt P40337); experiment: Binding of 35S-labeled pVHL to immobilized biotinylated HIF (556-575) peptides; settings: peptide on monomeric avidin Sepharose, autoradiography
T2 construct: made in house; host or cells: coupled in vitro transcription/translation (TNT kit, Promega)
T2 sequence (P40337 whole entry): as the sequence (P40337 whole entry) above

For “HIF (556-575) Pro564Ala peptide: HIF1α 556-575 peptide with Pro564 replaced by alanine (DLDLEMLAAYIPMDDDFQLR)”, the “elution of HIF bound to HA-pVHL” value [1] was “not eluted”.
“HIF (556-575) peptide with the Leu562Ala substitution and hydroxyproline at residue 564: HIF1α 556-575 peptide, Leu562Ala, hydroxyproline at 564 (DLDLEMAA[Hyp]YIPMDDDFQLR)” was tested, and the “binding to pVHL” value [2] was “pVHL bound”.
